Data: patent publication US20050089523A1

Assays:
[1] = molecular target: anti-VCAM-1•tTF coaguligand (anti-VCAM-1 antibody MK2.7 covalently linked through SMPT to truncated tissue factor, one antibody to one tTF, Mr 180,000) (human) (UniProt P13726); assay: 125I-labeled 10H10 bound to anti-VCAM-1•tTF-treated, IL-1alpha-activated bEnd.3 cells, at saturation
[2] = molecular target: murine vascular endothelial adhesion molecule-1 (VCAM-1) (murine) (UniProt P29533); assay: bEnd.3 cells treated with coaguligand, detected with 125I-labeled 10H10; attributed to constitutive VCAM-1 expression
UniProt P29533, sequence (P29533 25-739): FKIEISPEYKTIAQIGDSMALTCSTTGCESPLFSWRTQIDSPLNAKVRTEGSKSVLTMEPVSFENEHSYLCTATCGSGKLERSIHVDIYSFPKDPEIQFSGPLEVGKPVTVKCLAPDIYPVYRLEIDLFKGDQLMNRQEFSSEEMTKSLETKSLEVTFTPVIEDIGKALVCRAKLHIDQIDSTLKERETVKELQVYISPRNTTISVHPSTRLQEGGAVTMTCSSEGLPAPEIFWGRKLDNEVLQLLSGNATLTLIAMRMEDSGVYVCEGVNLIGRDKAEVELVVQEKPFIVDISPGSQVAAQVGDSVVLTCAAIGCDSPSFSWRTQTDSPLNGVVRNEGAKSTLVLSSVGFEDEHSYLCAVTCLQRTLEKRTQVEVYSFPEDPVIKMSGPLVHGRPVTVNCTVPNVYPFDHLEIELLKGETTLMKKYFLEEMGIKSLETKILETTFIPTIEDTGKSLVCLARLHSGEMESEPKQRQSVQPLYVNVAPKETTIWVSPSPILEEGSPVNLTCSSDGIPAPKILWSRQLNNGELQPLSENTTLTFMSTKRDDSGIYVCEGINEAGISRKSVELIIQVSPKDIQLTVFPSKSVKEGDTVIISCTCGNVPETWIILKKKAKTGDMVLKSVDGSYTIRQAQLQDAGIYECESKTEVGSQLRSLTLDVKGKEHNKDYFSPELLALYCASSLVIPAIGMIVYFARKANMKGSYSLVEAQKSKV

[3] = molecular target: murine vascular endothelial adhesion molecule-1 (VCAM-1) (murine) (UniProt P29533); assay: cell-based or functional assay

Row | amount of anti-TF antibody bound at saturation [1] | molecules of anti-TF antibody bound per cell (molecules per cell) [1] | binding to unstimulated cells relative to activated cells [2] | Generation of Factor Xa by anti-VCAM-1•tTF bound to intact, IL-1α-stimulated bEnd.3 cells (ng per 10^4 cells per 60 min.) [3] | Generation of Factor Xa by anti-VCAM-1•tTF bound to intact, unstimulated (control) bEnd.3 cells (ng per 10^4 cells per 60 min.) [3] | Generation of Factor Xa by anti-VCAM-1•tTF bound to saponin-permeabilized, IL-1α-stimulated bEnd.3 cells (ng per 10^4 cells per 60 min.) [3] | Generation of Factor Xa by anti-VCAM-1•tTF bound to saponin-permeabilized, unstimulated (control) bEnd.3 cells (ng per 10^4 cells per 60 min.) [3] | Substance
1 | 8.7 fmol | 540000 | – | – | – | – | – | 10H10, mouse monoclonal antibody against human tissue factor
2 | – | – | 0.5 | 3.17 | 1.64 | 98.8 | 49.2 | anti-VCAM-1•tTF coaguligand (anti-VCAM-1 antibody MK2.7 covalently linked through SMPT to truncated tissue factor, one antibody to one tTF, Mr 180,000) (from UniProt P13726 33-251)
